# B1: YBL085W (protein, UniProt P38041 1-980, looked up)
# BEM1-interacting protein 1: MSLEGNTLGKGAKSFPLYIAVNQYSKRMEDELNMKPGDKIKVITDDGEYNDGWYYGRNLRTKEEGLYPAVFTKRIAIEKPENLHKSPTQESGNSGVKYGNLNDSASNIGKVSSHQQENRYTSLKSTMSDIDKALEELRSGSVEQEVSKSPTRVPEVSTPQLQDEQTLIQEKTRNEENTTHDSLFSSTADLNLSSESLKNISKSNISTKSLEPSSESVRQLDLKMAKSWSPEEVTDYFSLVGFDQSTCNKFKEHQVSGKILLELELEHLKELEINSFGIRFQIFKEIRNIKSAIDSSSNKLDADYSTFAFENQAAQLMPAATVNRDEIQQQISSKCNKLSSESSDRKSSSVTTELQRPSSVVVNPNFKLHDPAEQILDMTEVPNLFADKDIFESPGRAPKPPSYPSPVQPPQSPSFNNRYTNNNARFPPQTTYPPKNKNPTVYSNGLIPNSSTSSDNSTGKFKFPAMNGHDSNSRKTTLTSATIPSINTVNTDESLPAISNISSNATSHHPNRNSVVYNNHKRTESGSSFVDLFNRISMLSPVKSSFDEEETKQPSKASRAVFDSARRKSSYGHSRDASLSEMKKHRRNSSILSFFSSKSQSNPTSPTKQTFTIDPAKMTSHSRSQSNSYSHARSQSYSHSRKHSLVTSPLKTSLSPINSKSNIALAHSETPTSSNNKEAVSQPSEGKHKHKHKHKSKHKHKNSSSKDGSSEEKSKKKLFSSTKESFVGSKEFKRSPSELTQKSTKSILPRSNAKKQQTSAFTEGIRSITAKESMQTADCSGWMSKKGTGAMGTWKQRFFTLHGTRLSYFTNTNDEKERGLIDITAHRVLPASDDDRLISLYAASLGKGKYCFKLVPPQPGSKKGLTFTEPRVHYFAVENKSEMKAWLSAIIKATIDIDTSVPVISSYATPTIPLSKAQTLLEEARLQTQLRDAEEEEGRDQFGWDDTQNKRNSNYPIEQDQFETSDYLESSAFEYPGGRL
# B2: YCR002C (protein, UniProt P25342 1-322, looked up)
# Cell division control protein …: MDPLSSVQPASYVGFDTITNQIEHRLLKKGFQFNIMVVGQSGLGKSTLINTLFASHLIDSATGDDISALPVTKTTEMKISTHTLVEDRVRLNINVIDTPGFGDFIDNSKAWEPIVKYIKEQHSQYLRKELTAQRERFITDTRVHAILYFLQPNGKELSRLDVEALKRLTEIANVIPVIGKSDTLTLDERTEFRELIQNEFEKYNFKIYPYDSEELTDEELELNRSVRSIIPFAVVGSENEIEINGETFRGRKTRWSAINVEDINQCDFVYLREFLIRTHLQDLIETTSYIHYEGFRARQLIALKENANSRSSAHMSSNAIQR
# B3: YGR281W (protein, UniProt P53049 1-1477, looked up)
# Oligomycin resistance …: MTITVGDAVSETELENKSQNVVLSPKASASSDISTDVDKDTSSSWDDKSLLPTGEYIVDRNKPQTYLNSDDIEKVTESDIFPQKRLFSFLHSKKIPEVPQTDDERKIYPLFHTNIISNMFFWWVLPILRVGYKRTIQPNDLFKMDPRMSIETLYDDFEKNMIYYFEKTRKKYRKRHPEATEEEVMENAKLPKHTVLRALLFTFKKQYFMSIVFAILANCTSGFNPMITKRLIEFVEEKAIFHSMHVNKGIGYAIGACLMMFVNGLTFNHFFHTSQLTGVQAKSILTKAAMKKMFNASNYARHCFPNGKVTSFVTTDLARIEFALSFQPFLAGFPAILAICIVLLIVNLGPIALVGIGIFFGGFFISLFAFKLILGFRIAANIFTDARVTMMREVLNNIKMIKYYTWEDAYEKNIQDIRTKEISKVRKMQLSRNFLIAMAMSLPSIASLVTFLAMYKVNKGGRQPGNIFASLSLFQVLSLQMFFLPIAIGTGIDMIIGLGRLQSLLEAPEDDPNQMIEMKPSPGFDPKLALKMTHCSFEWEDYELNDAIEEAKGEAKDEGKKNKKKRKDTWGKPSASTNKAKRLDNMLKDRDGPEDLEKTSFRGFKDLNFDIKKGEFIMITGPIGTGKSSLLNAMAGSMRKTDGKVEVNGDLLMCGYPWIQNASVRDNIIFGSPFNKEKYDEVVRVCSLKADLDILPAGDMTEIGERGITLSGGQKARINLARSVYKKKDIYLFDDVLSAVDSRVGKHIMDECLTGMLANKTRILATHQLSLIERASRVIVLGTDGQVDIGTVDELKARNQTLINLLQFSSQNSEKEDEEQEAVVAGELGQLKYESEVKELTELKKKATEMSQTANSGKIVADGHTSSKEERAVNSISLKIYREYIKAAVGKWGFIALPLYAILVVGTTFCSLFSSVWLSYWTENKFKNRPPSFYMGLYSFFVFAAFIFMNGQFTILCAMGIMASKWLNLRAVKRILHTPMSYIDTTPLGRILNRFTKDTDSLDNELTESLRLMTSQFANIVGVCVMCIVYLPWFAIAIPFLLVIFVLIADHYQSSGREIKRLEAVQRSFVYNNLNEVLGGMDTIKAYRSQERFLAKSDFLINKMNEAGYLVVVLQRWVGIFLDMVAIAFALIITLLCVTRAFPISAASVGVLLTYVLQLPGLLNTILRAMTQTENDMNSAERLVTYATELPLEASYRKPEMTPPESWPSMGEIIFENVDFAYRPGLPIVLKNLNLNIKSGEKIGICGRTGAGKSTIMSALYRLNELTAGKILIDNVDISQLGLFDLRRKLAIIPQDPVLFRGTIRKNLDPFNERTDDELWDALVRGGAIAKDDLPEVKLQKPDENGTHGKMHKFHLDQAVEEEGSNFSLGERQLLALTRALVRQSKILILDEATSSVDYETDGKIQTRIVEEFGDCTILCIAHRLKTIVNYDRILVLEKGEVAEFDTPWTLFSQEDSIFRSMCSRSGIVENDFENRS
# B4: YKL051W (protein, UniProt P35735 1-353, looked up)
# Protein SFK1: MIQFKSPGNWLFIVPWIAFIPWYGMLIAMLICWASQGHPIYWFMHSEQFPVYISDIGATNLRPLFISCAGWQGLGYVITVALEFFQRSGYLPFQLKKKDPSISDSTSYAEKLHSGKYLMPPYYTKDERNLIFAAFVLGSIGELALLFSSIFSTALYHRVHIAMVSVFVVFMFLSTCCLIAEYFLMGRHYASVHPLASPHFNPQSSEKSFNQDYNTVDELPWYKWKGHVWNKFTISATLKVIWLTLAVVWAICFGAINDRSKSACFEWLLAFWFGIIFMILSADFYLGGRYRQSRYFNHVESFSGYYKYDKALGLYHSEDVLPSDDNAGVIATETASSNIYNNSSSNESIQVVV
# B5: YBR200W (protein, UniProt P29366 1-551, looked up)
# Bud emergence protein 1: MLKNFKLSKRDSNGSKGRITSADISTPSHDNGSVIKHIKTVPVRYLSSSSTPVKSQRDSSPKNRHNSKDITSPEKVIKAKYSYQAQTSKELSFMEGEFFYVSGDEKDWYKASNPSTGKEGVVPKTYFEVFDRTKPSSVNGSNSSSRKVTNDSLNMGSLYAIVLYDFKAEKADELTTYVGENLFICAHHNCEWFIAKPIGRLGGPGLVPVGFVSIIDIATGYATGNDVIEDIKSVNLPTVQEWKSNIARYKASNISLGSVEQQQQQSITKPQNKSAKLVDGELLVKASVESFGLEDEKYWFLVCCELSNGKTRQLKRYYQDFYDLQVQLLDAFPAEAGKLRDAGGQWSKRIMPYIPGPVPYVTNSITKKRKEDLNIYVADLVNLPDYISRSEMVHSLFVVLNNGFDREFERDENQNNIKTLQENDTATFATASQTSNFASTNQDNTLTGEDLKLNKKLSDLSLSGSKQAPAQSTSGLKTTKIKFYYKDDIFALMLKGDTTYKELRSKIAPRIDTDNFKLQTKLFDGSGEEIKTDSQVSNIIQAKLKISVHDI
# Test system: BEM1-2
# Experiment: DHFR-PCA on solid medium, bait BEM1-2 (Fig. 1B)
# Type: cell-based, Saccharomyces cerevisiae
# Conditions: bait BEM1-2, label = prey; 2-8 replicates
# Text: (§1) Supplement 41467_2021_21873_MOESM8_ESM.xlsx, sheet "Fig1B" | column: medsize; medrep; Ratio; Score
row,Molecule,"medrep (log2 median colony size normalized to plate background, PCA score)"
1,B1,2.78
2,B2,3.007
3,B3,2.579
4,B4,1.764
5,B5,1.887

# Same assay, conditions: bait BEM1-2, label = prey; only significant differences showed; PPIs completely lost have a ratio of 0.1 and the gained PPIs 2.5
row,Molecule,Ratio (SH3-deleted/WT medrep)
1,B1,0.1
2,B2,0.1
3,B3,0.1
4,B4,0.482
5,B5,0.4478

# Test system: ABP1
# Experiment: DHFR-PCA on solid medium, bait ABP1 (Fig. 1B)
# Type: cell-based, Saccharomyces cerevisiae
# Conditions: bait ABP1, label = prey; 2-4 replicates
# Text: as §1
row,Molecule,"medrep (log2 median colony size normalized to plate background, PCA score)"
1,B2,2.496
2,B5,1.73

# Same assay, conditions: bait ABP1, label = prey; only significant differences showed; PPIs completely lost have a ratio of 0.1 and the gained PPIs 2.5
row,Molecule,Ratio (SH3-deleted/WT medrep)
1,B5,2.5

# Test system: BOI1
# Experiment: DHFR-PCA on solid medium, bait BOI1 (Fig. 1B)
# Type: cell-based, Saccharomyces cerevisiae
# Conditions: bait BOI1, label = prey; 3-8 replicates
# Text: as §1
row,Molecule,"medrep (log2 median colony size normalized to plate background, PCA score)"
1,B1,1.7279
2,B2,1.419
3,B3,1.486
4,B4,2.409
5,B5,3.166

# Same assay, conditions: bait BOI1, label = prey; only significant differences showed; PPIs completely lost have a ratio of 0.1 and the gained PPIs 2.5
row,Molecule,Ratio (SH3-deleted/WT medrep)
1,B2,0.1
2,B3,2.5
3,B4,1.668

# Test system: BBC1
# Experiment: DHFR-PCA on solid medium, bait BBC1 (Fig. 1B)
# Type: cell-based, Saccharomyces cerevisiae
# Conditions: bait BBC1, label = prey; 2-4 replicates
# Text: as §1
row,Molecule,"medrep (log2 median colony size normalized to plate background, PCA score)"
1,B3,1.516
2,B4,4.283

# Same assay, conditions: bait BBC1, label = prey; only significant differences showed; PPIs completely lost have a ratio of 0.1 and the gained PPIs 2.5
row,Molecule,Ratio (SH3-deleted/WT medrep)
1,B3,0.4155

# Test system: BEM1-1
# Experiment: DHFR-PCA on solid medium, bait BEM1-1 (Fig. 1B)
# Type: cell-based, Saccharomyces cerevisiae
# Conditions: bait BEM1-1, label = prey; 2-8 replicates
# Text: as §1
row,Molecule,"medrep (log2 median colony size normalized to plate background, PCA score)"
1,B1,1.5623
2,B2,3.007
3,B3,2.579
4,B4,3.661
5,B5,4.2138

# Same assay, conditions: bait BEM1-1, label = prey; only significant differences showed; PPIs completely lost have a ratio of 0.1 and the gained PPIs 2.5
row,Molecule,Ratio (SH3-deleted/WT medrep)
1,B1,0.5621
2,B4,0.1

# Test system: BOI2
# Experiment: DHFR-PCA on solid medium, bait BOI2 (Fig. 1B)
# Type: cell-based, Saccharomyces cerevisiae
# Conditions: bait BOI2, label = prey; 3-8 replicates
# Text: as §1
row,Molecule,"medrep (log2 median colony size normalized to plate background, PCA score)"
1,B1,3.465
2,B2,1.509
3,B3,2.696
4,B4,3.168
5,B5,4.509
